± gives the standard deviation of the averaged measurements.
Tested on: ATP
Test: switch fluorescence ratio, 500 uM ATP over buffer (Cy3 cluster intensity, sum of 5 cycles each) (fold (ratio)); higher = stronger signal-on switching upon ATP binding; sequences stand for … in TCGTCGGCAGCGTCAGATGTGTATAAGAGACAGTTTTTTTTTTTTTTTTTTTTTTTTT…TC
Settings: aptamer strand: ATP DNA aptamer (quencher-CACCTGGGGGAGTATTGCGGAGGAAGG + anchor), 100 nM annealed; ATP concentration: 500 uM
How it was run: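 Switching-strand clusters labelled with Cy3 on a modified Illumina MiSeq flow-cell were annealed to 100 nM quencher-labelled ATP aptamer, imaged in selection buffer, and re-imaged after 15 min with 500 uM ATP at 22 °C. This was done over five cycles with NaOH stripping and re-annealing in between. The fluorescence ratio is summed target-cycle over summed buffer-cycle Cy3 intensity per cluster, averaged per switch-domain sequence, excluding clusters outside 100-1000 RFU.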
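Note: ATP exposure 15 min at 22 °C before imaging.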

Sequence	switch fluorescence ratio
ATTTGGGCTG	0.999 ± 0.015
GATCGGCTTG	0.984 ± 0.013
GTTGTAAAGG	1.02 ± 0.026
GAGTGACCGA	1.01 ± 0.02
TGGGTGGCGA	1.02 ± 0.043
GACCATACGT	1.49 ± 0.026
CTGGGAGGGA	0.991 ± 0.035
TTGCGGACCA	0.996 ± 0.043
ACATAGTAAT	1.001 ± 0.0092
GGCTAAGACT	0.988 ± 0.024
GGACGTTGAG	0.985 ± 0.021
CGGGAAGCTT	1 ± 0.082
TCTTTTCTTT	1.04 ± 0.043
CTCGTGGTTT	0.981 ± 0.024
GCTGAAGGGT	1.012 ± 0.0019
CGGAAGCATG	1.13 ± 0.047
TGGGTTTAGG	1.02 ± 0.025
ATGACTTATT	0.968 ± 0.027
ACGCAGGCTT	1.05 ± 0.011
ACTTGGGTAG	0.9928 ± 0.0011
AAAGCCGGTA	1.01 ± 0.084
AGGGACGGAG	1.01 ± 0.034
GGGGTCGTTC	0.99 ± 0.028

Sequence	switch fluorescence ratio
GAGCAATTTT	2.31 ± 0.15
TTAAGTCTAT	0.9889 ± 0.0078
GGGGATTATA	1.01 ± 0.015
TACTGTGGTT	1 ± 0.018
CAGTGTGAGC	1.01 ± 0.039
TGCTAGTGGT	1.01 ± 0.016
AAAAGCGGAT	1.025 ± 0.0063
CTTGGTGACG	1.09 ± 0.031
ACGTGGTAGC	1 ± 0.03
TCACTTAGAA	1.04 ± 0.016
AGGGTGGGTG	1.01 ± 0.024
TCACGTTCTG	1.03 ± 0.029
GGAATGTACG	1 ± 0.041
ACATGACGGG	1.06 ± 0.015
GGCCCCAAAT	0.9817 ± 0.0041
ACACTCAGAG	1.019 ± 0.004
GGGCTTTTCG	0.992 ± 0.024
CTAAACTAGG	1.02 ± 0.013
ATATAAGGGA	1 ± 0.019
AAAAAGTGGT	0.9827 ± 0.0041
ATTTACTTGT	1.05 ± 0.094
TTTGGCGGCG	0.993 ± 0.067
GGGGGGCGGG	1.03 ± 0.051

Sequence	switch fluorescence ratio
CAGGGGAAAC	1.02 ± 0.077
CATAGGAAGG	0.987 ± 0.013
CGGTGAGTAG	0.9876 ± 0.0092
TGTGGCTTAA	0.9668 ± 0.0021
AAAGAATTCG	0.974 ± 0.037
TTAATGAATT	0.994 ± 0.014
TATGTTCGAG	0.968 ± 0.033
ATTTTAGGAC	1.03 ± 0.025
TGGTTTGTAT	1 ± 0.029
CTCATTGGCC	0.983 ± 0.0025
TTTTCATTCT	1.01 ± 0.013
TTATGGGTTT	1 ± 0.036
TGTCTGCAGC	1.022 ± 0.0085
CATTCCGTTC	1.42 ± 0.017
GGGGCAGCCA	1.03 ± 0.038
TAACATCGGT	0.996 ± 0.021
GGGATGAGAG	1 ± 0.04
CTCGCATGCA	1.2 ± 0.035
CTCCTCGTCA	1.17 ± 0.036
TTCTGTGGGG	1.01 ± 0.017
TTTTTCGGTG	1.04 ± 0.11
GGAGATTTTT	0.977 ± 0.044
GATTTGACG	1.04 ± 0.056

Sequence	switch fluorescence ratio
TAAGGCTCCC	1.063 ± 0.0044
CAGGGATTTA	0.978 ± 0.024
TAAAAAAAAG	1.01 ± 0.039
CTCGTATTTA	0.976 ± 0.021
GGGGGAGTTG	0.982 ± 0.044
GGGGCAGGCT	0.886 ± 0.18
CTGAGCCGGA	1.08 ± 0.16
CGGCTGGTCA	0.984 ± 0.021
TCGAGATTAT	1.01 ± 0.027
AATTTTTGAT	0.979 ± 0.037
CAGAGGGTGC	1.03 ± 0.017
TTGATAGGTC	1.01 ± 0.04
GAATTGTTCG	0.985 ± 0.051
GCCAGGGGGA	1.09 ± 0.12
TTGCATCGGG	0.9891 ± 0.0034
AGGGAACCGC	1.016 ± 0.0062
CTCGCGGCGG	1.03 ± 0.034
TTTTGATCGA	1.03 ± 0.11
CCTGGGGAAT	1.91 ± 1.1
CGAATTGATA	1.01 ± 0.013
GGGGCTTATT	0.975 ± 0.029
AGGTGTTATG	1.03 ± 0.051
GGGGTGCTG	1.02 ± 0.036

Sequence	switch fluorescence ratio
TTTTAATCTC	0.979 ± 0.024
GTGGGTGTCC	1.01 ± 0.017
TTACATATAG	1.04 ± 0.015
GGTAATATTA	1.07 ± 0.051
TTTTCAGTGT	0.996 ± 0.029
AGGCTTATCG	1.02 ± 0.024
AAGTATTATT	0.983 ± 0.03
ATTCATTTTT	1.004 ± 0.01
TGTGGGAGGT	0.9573 ± 0.0065
ATTGTATTTA	0.9842 ± 0.0079
TGGGCAGGGC	1.04 ± 0.058
TACCAATTAA	1.01 ± 0.026
TAGCAATGGC	2.42 ± 0.14
AGTTGAATGT	0.9647 ± 0.0063
TTGCTGAGAC	1.24 ± 0.3
TAATGAGCTT	0.995 ± 0.013
CTGGGGGTTC	1.01 ± 0.018
TTACAGTTGT	1.01 ± 0.038
CACAGGGCGG	1.04 ± 0.017
AGATGCTTAT	0.979 ± 0.019
CGCGGGGGGA	1.03 ± 0.06
TTTTGTTAGG	0.98 ± 0.01
TGGAACACCT	1.13 ± 0.041

Sequence	switch fluorescence ratio
GGAATTCTCC	1.21 ± 0.03
TTTTAGCATT	0.992 ± 0.062
TATATTAAGA	1.01 ± 0.016
GGAGCTGCGG	0.9914 ± 0.0038
TTCTAGTGGG	1 ± 0.033
GATGGGTTTT	0.997 ± 0.062
TAGTAGATGT	1.01 ± 0.036
GCATGATCAA	0.997 ± 0.031
CGGGGAGGTG	1.1 ± 0.087
GTGGAATAAT	0.981 ± 0.015
TATGACTCGT	0.99 ± 0.021
ACGTTGTTTT	0.984 ± 0.011
ACGGTACGGA	1.21 ± 0.05
GGCGTATCAG	0.979 ± 0.051
AATCATAGGG	1.011 ± 0.0087
TGCGTCAACT	1.01 ± 0.023
ATGCCTGGGT	0.999 ± 0.034
TGACCGGGGG	1.0571 ± 5.2e-05
GGTCCGGCAC	1.079 ± 0.009
AGGTGGGGTC	0.984 ± 0.016
CGGGAAATGG	1.007 ± 0.0064
TTCCACGCGG	1.268 ± 0.0091
TTGGTTTTTT	1 ± 0.034

Sequence	switch fluorescence ratio
CCAGACGTTT	1.037 ± 0.0073
ACCGACTTGC	1.09 ± 0.018
ACCTCGAAGA	1.03 ± 0.014
GGGTGAAGAA	0.967 ± 0.019
ATGGTAACGT	1.01 ± 0.044
TAGAGGCTGA	0.9937 ± 0.0054
TAGAGGCAGC	0.999 ± 0.044
GGGGAGAAAC	1.08 ± 0.042
CGAGATTGGT	0.973 ± 0.016
ACTTATGGCT	1.05 ± 0.022
AGTTCATTT	0.999 ± 0.019
TAAATATTT	0.996 ± 0.025
CCTTAATTTT	1.01 ± 0.019
TGTTACAGAG	1.01 ± 0.052
TTAAAGTCTC	0.946 ± 0.021
TGGAGAATTT	1.02 ± 0.044
CTTTGAGACG	0.978 ± 0.068
AAATAAGTGA	0.979 ± 0.013
CGATTCGGTA	1.01 ± 0.042

— the supplement of paper PMC10126150
